Test [1] deals with skelemin tandem IgC2 domains 4 and 5 with the interconnecting linker, C1354S (mouse). The test is described as follows: ITC.
Test [2] has as its target integrin β3 cytoplasmic tail (UniProt P05106). The test is described as follows: ITC. In general terms: Isothermal titration calorimetry measures the heat released or taken up as one component is titrated into another.

As usually defined, the stoichiometry N is the number of molecules, sites or subunits per partner or assembly. Usually Kd stands for the equilibrium constant for the complex coming apart. A low value points to higher affinity.

Sequence of integrin β3 cytoplasmic tail (P05106 742-788): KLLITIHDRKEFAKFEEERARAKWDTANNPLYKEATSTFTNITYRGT

As for “integrin αIIb cytoplasmic tail peptide (starting from W988)”, in test [1], the dH is -1.6 kJ/mol and the stoichiometry N worked out at 1.26. In test [2], this substance came in with a dissociation constant Kd of 5.7 µM.

The record behind these values is publication PMC4222533.
